US20250313612A1 (Adimab, published 2025)
Positions count from the first letter of the chain named.

B1: ADI-14438 (antibody, V domains shown)
VH: QVQLVQSGAEVKKPGASVKVSCRASGFVFTSYDINWVRQAPGQGLEWMGRMNAHTGQVTYAQKFQDKVSMTRDVSITTAYLELSRLASEDTAVYYCARPDINWGQDAFDVWGQGTMVTVSS
VL: DIRMTQSPSTLSASIGARVTITCRASQNIGNFLAWYQQKPGKAPKLLIYKASTLDPGVPSRFSGSGSGTEFTLTITSLQPDDFATFYCQQYKSDPTFGQGTKVEIK
notes: full-length IgG (yeast-expressed); also called Antibody Number 1; Ab# 1
B2: ADI-14491 (antibody, V domains shown)
VH: EVQLVESGGGVVQPGRSLRLSCAASGFTFSDHAMYWVRQAPGKGLEWVALISFDGRNIYYADSVKGRFTISRDNSKNTLYLQMNSLRAEDTAVYYCARDQWLVPDYWGQGTLVTVSS
VL: QSVLTQPASVSGSPGQSITISCTGTSSDVGGYNYVSWYQQHPGNAPKLMIYEVSKRPSGVPDRFSGFKSGNTASLTVSGLQAEDEADYYCSSYAGSNSVFGTGTKVTVL
notes: full-length IgG (yeast-expressed); also called Antibody Number 52; Ab# 52
B3: ADI-14461 (antibody, V domains shown)
VH: B2 VH
VL: B2 VL with Q1L, S2P, V106L
notes: full-length IgG (yeast-expressed); also called Antibody Number 24; Ab# 24
B4: ADI-14494 (antibody, V domains shown)
VH: B2 VH
VL: B2 VL with V3A
notes: full-length IgG (yeast-expressed); also called Antibody Number 55; Ab# 55
B5: ADI-14525 (antibody, V domains shown)
VH: B2 VH with V5L, A23T
VL: B2 VL with T5I, K105Q, V106L
notes: full-length IgG (yeast-expressed); also called Antibody Number 85; Ab# 85
B6: ADI-14492 (antibody, V domains shown)
VH: EVQLVESGGGLVRPGGSLGLSCSASGFIFSNAWMTWVRQAPGKGLEWVGHIKSKVNGGTTAYGAPVKGRFTISRDDSRNTLFLQMNSLKTEDTGVYYCTTGPPYQYFDDSGYSVVDYWGQGTLVTVSS
VL: QSVVTQPPSASGTPGQRVTISCSGSDSNIGTDYFYWYQQLPGSAPKLLIYGSNQRPSGVPDRFSGSQSGSAASLAISGLRSEDDADYYCAAWDDSLGGPVFGGGTKVTVL
notes: full-length IgG (yeast-expressed); also called Antibody Number 53; Ab# 53
B7: ADI-14495 (antibody, V domains shown)
VH: QITLKESGPTLVKPTQTLTLTCSFSGFSLTTRGVGVGWVRQPPGKALECLGFVYWDDDKRYSPSLRSRLTISEDTSKNQVVLTMTNMDPLDTATYYCVHSDLYDRGGYYLFYFDYWGQGTLVTVSS
VL: DIVLTQSPSSLSASVGDRVTITCRASQPIASYLNWYQHKPGKAPKLLIYAASSLQSGVSSTFSGRGSGTDFTLTITALQPEDFAIYYCQQSYTFPYTFGQGTKVDIK
notes: full-length IgG (yeast-expressed); also called Antibody Number 56; Ab# 56
B8: ADI-14443 (antibody, V domains shown)
VH: QVQLVQSGTEVKKPGSSVKVSCKASGGTFGSYAVIWVRQAPGQGLEWMGHFIPVFATTNKAQKFQGRLTLSTDESTGTVYMELSSLRSEDTAVYFCATKRYCSDPSCHGLWYFDLWGRGTLVTVSS
VL: DIQLTQSPLSLPVTPGEPASISCRSSQSLLDSDDGNTYLDWYLQKPGQSPQVLIYMLSYRASGVPDRFSGSGSGTDFTLEISRVEAEDVGVYYCMQRVEFPYTFGQGTKLEIK
notes: full-length IgG (yeast-expressed); also called Antibody Number 6; Ab# 6
B9: ADI-14471 (antibody, V domains shown)
VH: B8 VH with T9A, F51I, A56G, T58I, K60N, T72A, E82G, E89D
VL: B8 VL with Q3R, E80K, V98A
notes: full-length IgG (yeast-expressed); also called Antibody Number 34; Ab# 34
B10: ADI-14497 (antibody, V domains shown)
VH: QITLKESGPTLVKPTQTLTLTCTFSGFSLTTRGVGVGWIRQPPGKALEFLGFIHWDDDKTYSPSLRRRLTITKDTSNNEVVLTMTNMDPVDTATYYCVHSDLYDSGGYYLYYFDYWGQGTLVTVSS
VL: EIVMTQSPSSLSASVGDRVTITCRASQPIPSYVNWYQQRPGKAPKLLIYAASNLQSGVSSKFSGRGFGTDFTLTIDTLQPEDFATYYCQQVYTSPYTFGQGTKLEIK
notes: full-length IgG (yeast-expressed); also called Antibody Number 58; Ab# 58
B11: ADI-14498 (antibody, V domains shown)
VH: EVQLVESGPTLVKPTQTLTLTCTFSGFSLTTRGMGVGWIRQPPGRSLEWLAVIYWDGDVRYSPSLKGRLTITKDTPKNQVVLTMTNMDPVDTATYYCVHSDLYDRNAYYLHYFDFWGQGTLVTVSS
VL: DIRLTQSPSSLSASVGDRVTITCRASQIIASYLNWYQQKPGKAPNLLIFAASSLQSGVPSRFRGSGSGTDFTLTISSLQPEDFATYYCQQSYSIPYTFGQGTKLEIK
notes: full-length IgG (yeast-expressed); also called Antibody Number 59; Ab# 59
B12: ADI-14499 (antibody, V domains shown)
VH: QVQLVQSGPALVKPTQTLTLTCTFSGFSLTTRGVGVGWIRQTPGKALECLGFIYWDDDMNYNPSLRGRVTITRDTSKNQVVLTMTNMAPVDTGTYYCVHSDLYDSSGYYLYYFDYWGQGTLVTVSS
VL: DIRLTQSPSSLSASVGDRVTITCRASQPIASYLNWYQQKPGKAPKLLIYAASNLQSGVPSTFSGRGSGTDFSLTISTLQPEDIATYYCQQSYTSPYTFGQGTKVEIK
notes: full-length IgG (yeast-expressed); also called Antibody Number 60; Ab# 60
B13: ADI-14500 (antibody, V domains shown)
VH: EVQLLESGGGLVKPGGSLRLSCAASGFIFNNAWMTWVRQAPGRGLEWVGRIKTNADGGTADYSTPVKGRFAISRDDSTNTLYLQMNSLKTEDTAVYYCTTGPPYKYSDSTGYSVVDYWGQGTLVTVSS
VL: SYELTQPPSASGTPGQRVTISCSGSSSNIGSNYVYWYQQLPGTAPKLLIYSTNQRPSGVPDRFSGSQSGTSASLAISGLRSEDEADYYCAAWDDRLSGPVFGGGTQLTVL
notes: full-length IgG (yeast-expressed); also called Antibody Number 61; Ab# 61
B14: ADI-14504 (antibody, V domains shown)
VH: EVQLVESGGGLVQPGGSLRLSCAASGFPFSRYNMNWVRQAPGKGLEWVSYISSGSRSIYYADSVKGRFTISRDNAKNSLYLQMNSLRAEDTAVYYCARDLSGSPAYSGSWVWGQGTLVTVSS
VL: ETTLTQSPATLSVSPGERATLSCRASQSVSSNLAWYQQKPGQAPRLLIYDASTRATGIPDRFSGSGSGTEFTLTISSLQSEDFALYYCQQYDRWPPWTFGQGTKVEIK
notes: full-length IgG (yeast-expressed); also called Antibody Number 65; Ab# 65
B15: ADI-14506 (antibody, V domains shown)
VH: QVQLVQSGAEVKKPGSSVKVSCKVAGGSFSNYAIAWLRQAPGQGLEWMGGIIPAFNRAMYARKFQDRVTITAYASTTTAYLDITGLRSEDTALYYCARPAGDFGDLKWVRSPFDYWGQGTLITVSS
VL: DIVMTQTPGTLSVSPGERATLSCRASQDVGINLAWYQQKPGQAPRLLIYGASTRATDVPAKFSGSGSGTDFTLTISSLQSEDFGVYYCQEYNDWPPQLSFGPGTKVDIK
notes: full-length IgG (yeast-expressed); also called Antibody Number 67; Ab# 67
B16: ADI-14507 (antibody, V domains shown)
VH: QITLKESGPTLVKPTQTLTLTCTLSGFSLSTPRMGVGWIRQPPGKALEWLALIDWDDDRRYSPSLKTRLTITKDTSKNQVVLRMTDMDPVDTGTYYCVHSDVYTTGGYYLYYFDYWGQGTLVTVSS
VL: DIQVTQSPSSLSASVGDRVTITCRASQTIPSYLNWYQHKPGKAPQLLIYAASNLRSGVPPRFRGSGSGTDFTLTVSSLQPEDFATYFCQQSYSSPYTFGQGTKLEIK
notes: full-length IgG (yeast-expressed); also called Antibody Number 68; Ab# 68
B17: ADI-14510 (antibody, V domains shown)
VH: QVQLQQWGAEVKKPGSSVKVSCKASGVALSSVAISWVRQAPGQGLEWMGGILPGFDKVRFAQEFENRATLTADTARDIAYMELSGLRSDDTAVYYCAIIDPQDCTSASCFWVNWLDPWGQGTLVTVSS
VL: ETTLTQSPGTLTVSPGERATLSCRASQSIIRNNLAWYQQKPGQAPRLLIYAASNRATDIPDRFSGSGSGTDFTLTISRLEAQDFAVYFCQQYGTSPITFGQGTKVEIK
notes: full-length IgG (yeast-expressed); also called Antibody Number 71; Ab# 71
B18: ADI-14511 (antibody, V domains shown)
VH: EVQLLESGAEVKKPGSSVKVSCKVAGGTFSDYAISWVRQAPGQGLEYLGGIIPAFKRAMYPRKFQDRVTITADESTSTAYMELRGLRSEDTALYYCARPAGDFGDLKWLRSPFDYWGQGTLVTVSS
VL: B15 VL with M4L, T7S, G9A, Q27E, D28G, V58I, K61R, G84A, E90Q, S99T
notes: full-length IgG (yeast-expressed); also called Antibody Number 72; Ab# 72
B19: ADI-14512 (antibody, V domains shown)
VH: EVQLVESGAEVKKPGSSVKVSCKVVGGSFSNYGISWVRQAPGQGPEWMGGIIPAFKTAKYAKKFEDRVTITADESTSTAYMEVSGLRSDDTALYYCARPERDFGHLKWLRSPFDYWGQGTLVTVSS
VL: ETTLTQSPATLSVSPGERVTLSCRASQGVSINLAWYQQKPGQAPRLLIYGASTRATDIPARFSGSGSGTDFTLTISSLQSEDFAVYYCQQYNDWPPQLTFGPGTKVEIK
notes: full-length IgG (yeast-expressed); also called Antibody Number 73; Ab# 73

Key:
[1] = target: RSV F protein of recombinant mKate-RSV, subtype B (18537) (Respiratory syncytial virus subtype B …, UniProt P13843 26-574); experiment: cell-based or functional assay
[2] = target: RSV F protein of recombinant mKate-RSV, subtype A (strain A2) (Respiratory syncytial virus subtype A …, UniProt P03420 26-574); experiment: cell-based or functional assay
[3] = target: T1, RSV F ectodomain stabilized in the postfusion conformation (F ΔFP), subtype B (Respiratory syncytial virus subtype B, UniProt P13843 26-109; P13843 147-524); experiment: BLI, IgG on AHQ sensor, 100 nM antigen
T1 construct: extracellular domain; trimer; also called Postfusion subtype B; postF subtype B

[4] = target: T2, RSV F ectodomain stabilized in the postfusion conformation (F ΔFP), subtype A (Respiratory syncytial virus subtype A, UniProt P03420 26-109; P03420 147-524); experiment: BLI, IgG on AHQ sensor, 100 nM antigen
T2 construct: extracellular domain; trimer; furin-cleaved; also called Postfusion subtype A

Binder | Neut IC50 subtype B [1] [µg/mL] | Neut IC50 subtype A [2] [µg/mL] | Kd [3] [nM] | Kd [4] [nM]
B1 | 0.237 | 0.289 | 8.29 | 11.8
B2 | 0.102 | 0.105 | 0.158 | 0.238
B3 | 0.152 | 0.129 | 0.156 | 0.231
B4 | 0.089 | 0.084 | 0.155 | 0.24
B5 | 0.108 | 0.135 | 0.149 | 0.23
B6 | 0.681 | 0.204 | 0.111 | 0.166
B7 | 17.4 | 0.864 | 1.71 | 0.367
B8 | 0.063 | 0.047 | 0.137 | 0.19
B9 | 0.116 | 0.096 | 0.15 | 0.212
B10 | 0.116 | 0.115 | 4.82 | 0.358
B11 | > 10 | > 10 | 2.27 | 0.412
B12 | > 10 | > 10 | 2.99 | 0.415
B13 | 0.552 | 0.415 | 0.127 | 0.714
B14 | 13.4 | 2.81 | 0.52 | 0.583
B15 | 6.25 | > 10 | 24.5 | 13.1
B16 | 0.173 | 0.319 | 0.413 | 0.266
B17 | > 10 | > 10 | 0.619 | 0.783
B18 | 7.04 | > 10 | 1.25 | 0.988
B19 | > 10 | > 10 | 0.587 | 2.67
